Measured values as given in patent US20120114590A1 (priority 2005, published 2012).
Where two headings read alike, the source gives them in different places.

Key:
EMCV = EMCV antiviral assay (MTT dye uptake) in HepG2 cells; format: cell-based, encephalomyocarditis virus; conditions: cytokine 24 hours before EMCV challenge
[1] = test system: liver, spleen and blood of mice; assay: ISG gene expression (OAS, Pkr, Mx1) in liver, spleen and blood of injected C57BL/6 mice (real-time PCR); format: in vivo, mouse; conditions: for OAS-1 hr / OAS-6 hr / OAS-24 hr / OAS-48 hr: single injection of 250 μg i.v., average of 5 animals; for OAS (24 hr): fold expression relative to HPRT
Protocol: Mice were sacrificed at various time points (1 hr-48 hr). Spleens and livers were isolated from mice, and RNA was isolated. RNA was also isolated from the blood cells. The cells were pelleted and RNA isolated from pellets using RNAEasy®-kit (Qiagen). RNA was treated with DNase (Amicon) to rid RNA of any contaminating DNA. cDNA was generated using Perkin-Elmer RT mix (Perkin-Elmer). ISG gene induction was measured by real-time PCR using primers and probes specific for mouse OAS, Pkr and Mx1. To obtain quantitative data, HPRT real-time PCR was duplexed with ISG PCR. A standard curve was calculated using known amounts of IFN-stimulated mouse PBLs. All data are shown as expression relative to internal HPRT expression.

[2] = test system: Influenza (type A [H3N2]); format: cell-based; conditions: Vero cells, Neutral Red Assay
West Nile virus = format: cell-based; conditions: Vero
OAS = OAS activity in serum and plasma of mice (OAS radioimmunoassay); format: in vivo, mouse; conditions: C57BL/6 mice
Protocol: Serum and plasma were isolated from mice at varying time points, and OAS activity was measured using the OAS radioimmunoassay (RIA) kit from Eiken Chemicals (Tokyo, Japan).

[3] = test system: human marrow mononuclear cells
[4] = test system: Influenza (type A [H3N2]); format: cell-based; conditions: Maden-Darby Canine Kidney
Parainfluenza virus = format: cell-based; conditions: MA-104 cells, Neutral Red Assay
[5] = test system: Influenza (type A [H3N2]); format: cell-based; conditions: Vero
[6] = test system: 293 HEK cells overexpressing zcytor19; assay: Inhibition of ligand-induced ISRE-luciferase signaling by soluble receptors; format: cell-based, human; conditions: 10 ng/ml ligand, 10 micrograms/ml soluble receptor, 4-hour; relative to PBS alone
Pichinde virus = format: cell-based
Dengue virus = format: cell-based; conditions: Vero
[7] = test system: spleens of transgenic mice; assay: ISG expression in spleens of Eu-lck human IL-29 transgenic mice (real-time PCR); format: in vivo, mouse; conditions: spleens of Eu-lck IL-29 transgenic mice; fold expression relative to HPRT; average of two mice
Protocol: This promoter is active in T cells and B cells. Transgenic mice and their non-transgenic littermates (n=2/gp) were sacrificed at about 10 weeks of age. Spleens of mice were isolated. RNA was isolated from cell pellets using RNAEasy-kit® (Qiagen). RNA was treated with DNase to clean RNA of any contaminating DNA. cDNA was generated using Perkin-Elmer RT® mix. ISG gene induction was evaluated by real-time PCR using primers and probes (5′ FAM, 3′ NFQ) specific for mouse OAS, Pkr and Mx1. To obtain quantitative data, HPRT real-time PCR was duplexed with ISG PCR. Furthermore, a standard curve was obtained using known amounts of IFN stimulated mouse PBLs. All data are shown as expression relative to internal HPRT expression.

[8] = test system: Venezuelan equine encephalitis virus; format: cell-based; conditions: Vero cells, Neutral Red Assay
Vaccinia virus = format: cell-based; conditions: Vero
Rhino 2 = format: cell-based, rhino virus; conditions: Rhino 2, KB cells, Neutral Red Assay

B1: IL-29: human IL-29 cytokine polypeptide (zcyto21), e.g. SEQ ID NO:20 (protein, listed as Homo sapiens)
chain: MAAAWTVVLVTLVLGLAVAGPVPTSKPTTTGKGCHIGRFKSLSPQELASFKKARDALEESLKLKNWSCSSPVFPGNWDLRLLQVRERPVALEAELALTLKVLEAAAGPALEDVLDQPLHTLHHILSQLQACIQPQPTAGPRPRGRLHHWLHRLQEAPKKESAGCLEASVTFNLFRLLTRDLKYVADGNLCLRTSTHPEST
modifications: SIGNAL (1)...(19)
EMCV
  EC50 (antiviral activity, OD570): 0.0006 µg/mL
[1]; C57BL/6 mice
  sustained expression of ISGs above control mice: up to 48 hours
  time of peak expression of ISGs after injection: 1 to 6 h
[1]; C57BL/6 mice, i.p or i.v, 10 μg-250 μg
  ISG gene expression (OAS, Pkr, Mx1) in the livers, spleen and blood of mice: induced ISG gene expression
[1]; blood, C57BL/6 mice
  OAS-1 hr: 12 fold expression relative to HPRT gene expression
  OAS-6 hr: 18 fold expression relative to HPRT gene expression
  OAS-24 hr: 11 fold expression relative to HPRT gene expression
  OAS-48 hr: 10 fold expression relative to HPRT gene expression
[1]; liver, C57BL/6 mice
  OAS-1 hr: 2.5 fold expression relative to HPRT gene expression
  OAS-6 hr: 4 fold expression relative to HPRT gene expression
  OAS-24 hr: 2.5 fold expression relative to HPRT gene expression
  OAS-48 hr: 2.8 fold expression relative to HPRT gene expression
[1]; mice injected with 10 μg
  OAS (24 hr): 3.7
[1]; mice injected with 50 μg
  OAS (24 hr): 4.2
[1]; mice injected with 250 μg
  OAS (24 hr): 6
[1]; spleen, C57BL/6 mice
  OAS-1 hr: 4 fold expression relative to HPRT gene expression
  OAS-6 hr: 6 fold expression relative to HPRT gene expression
  OAS-24 hr: 3.2 fold expression relative to HPRT gene expression
  OAS-48 hr: 3.2 fold expression relative to HPRT gene expression
[2]
  EC50 NR: 2 µg/mL
  IC50 NR: >10 µg/mL
West Nile virus
  EC50 Visual: 0.032 ng/mL
West Nile virus; numerator of SI
  IC50 Visual: >10 µg/mL
OAS; i.v, 10 μg-250 μg
  OAS activity in the serum and plasma of mice: induced OAS activity
OAS; plasma, 1 hr, 250 μg i.v.
  OAS-1 hr (OAS activity): 80 pmol/dL of plasma
OAS; plasma, 6 hr, 250 μg i.v.
  OAS-6 hr (OAS activity): 80 pmol/dL of plasma
OAS; plasma, 24 hr, 250 μg i.v.
  OAS-24 hr (OAS activity): 180 pmol/dL of plasma
OAS; plasma, 48 hr, 250 μg i.v.
  OAS-48 hr (OAS activity): 200 pmol/dL of plasma
[3]; in the presence of IL-2 or IL-15
  bone marrow cell expansion: small inhibition
[3]; in the presence of IL-3, IL-4, IL-5, IL-7, IL-10, IL-12, IL-21 or no added cytokine
  expansion of bone marrow cells: no significant effect
[4]
  EC50 Visual: >10 µg/mL
[4]; numerator of SI
  IC50 Visual: >10 µg/mL
Parainfluenza virus
  EC50 NR: >10 µg/mL
  IC50 NR: >10 µg/mL
[5]
  EC50 Visual: >10 µg/mL
[5]; numerator of SI
  IC50 Visual: >10 µg/mL
[6]
  Percent Inhibition of Ligand-induced ISRE Signaling by HuCRF2-4-Fc: 79%
  Percent Inhibition of Ligand-induced ISRE Signaling by Huzcytor19-Fc: 45%
  Percent Inhibition of Ligand-induced ISRE Signaling by Huzcytor19-Fc/huCRF2-4-Fc: 16%
  Percent Inhibition of Ligand-induced ISRE Signaling by Muzcytor19-Ig: 103%
Pichinde virus
  EC50 NR: >10 µg/mL
  IC50 NR: >10 µg/mL
Dengue virus
  EC50 Visual: 0.032 µg/mL
Dengue virus; numerator of SI
  IC50 Visual: >10 µg/mL
[7]
  Mx1: 21
  OAS: 12
  PkR: 8
[8]
  EC50 NR: 0.05 µg/mL
  IC50 NR: >10 µg/mL
Vaccinia virus
  EC50 Visual: >10 µg/mL
Vaccinia virus; numerator of SI
  IC50 Visual: >10 µg/mL
Rhino 2
  EC50 NR: >10 µg/mL
  IC50 NR: >10 µg/mL
